Results: patent US20060134103A1, “Compounds and molecular complexes comprising multiple binding regions directed to transcytotic ligands” (published 2006)

T1: GST-Human-stalk fusion protein (Schistosoma japonica; human, UniProt P01833)
T1 chain: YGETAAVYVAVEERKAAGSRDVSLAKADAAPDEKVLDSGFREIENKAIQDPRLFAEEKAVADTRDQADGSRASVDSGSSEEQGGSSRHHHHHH


What was measured:
[1] = target: pIgR expressed in transfected MDCK cells (Examples 6 and 7)
[2] = target: T1, GST-Human-stalk fusion protein; test: SPR (BIAcore), D6-GST captured by immobilized anti-GST antibody, 1:1 Langmuir global fit
[3] = target: GST-Rat-stalk fusion protein (Schistosoma japonica; rat) (UniProt P15083); test: as above

Binder | apical to basolateral (reverse) transcytosis after 16 hours [1] [%] | basolateral to apical (forward) transcytosis after 16 hours [1] [%] | Ka [2] [M⁻¹] | Kd [2] [nM] | Ka [3] [M⁻¹] | Kd [3] [nM] | koff [2] [s⁻¹]
sFv5AF-Cys purified dimer (scFv) scFv: DYKAKQVQLVQSGGGVVQPGRSLRLSCAASGFTFSSYAMHWVRQAPGKGLEWVSAISGSGGSTYYADSVKGRFTISRDNAKNSLYLQMNSLRAEDTAVYYCARDTRGYFDLWGRGTLVTVSSGGGGSGGGGSGGGGSSELTQDPAMSVALGQTVRITCQGDSLRKYHASWYQQRPRQAPRLVVYGKNERPSGIPERFSGSTSGDTASLTISGLQAEDEADYYCHSRDSNADLVVFGGGTKVTVLGAAAEQKLISEEDLNGAAHHHHHH | 10 | < 10 | 5.02e+08 | 1.99 | 5.01e+08 | 2 | 
sFv5AF-Cys (starting material, mixture of monomer and dimer) (scFv) scFv: DYKAKQVQLVQSGGGVVQPGRSLRLSCAASGFTFSSYAMHWVRQAPGKGLEWVSAISGSGGSTYYADSVKGRFTISRDNAKNSLYLQMNSLRAEDTAVYYCARDTRGYFDLWGRGTLVTVSSGGGGSGGGGSGGGGSSELTQDPAMSVALGQTVRITCQGDSLRKYHASWYQQRPRQAPRLVVYGKNERPSGIPERFSGSTSGDTASLTISGLQAEDEADYYCHSRDSNADLVVFGGGTKVTVLGAAAEQKLISEEDLNGAAHHHHHH |  |  | 6.71e+08 | 1.49 | 4.36e+08 | 2.3 | 0.00145
sFv5AF-Cys purified monomer (scFv) scFv: DYKAKQVQLVQSGGGVVQPGRSLRLSCAASGFTFSSYAMHWVRQAPGKGLEWVSAISGSGGSTYYADSVKGRFTISRDNAKNSLYLQMNSLRAEDTAVYYCARDTRGYFDLWGRGTLVTVSSGGGGSGGGGSGGGGSSELTQDPAMSVALGQTVRITCQGDSLRKYHASWYQQRPRQAPRLVVYGKNERPSGIPERFSGSTSGDTASLTISGLQAEDEADYYCHSRDSNADLVVFGGGTKVTVLGAAAEQKLISEEDLNGAAHHHHHH | < 5 |  | 1.77e+08 | 5.64 | 1.77e+08 | 5.63 | 0.00241
